The target in data set [1] is T1, T4 Dda-E94C/C109A/C136A/A360C helicase (UniProt P32270 SEQ:1-439, E94C/C109A/C136A/A360C).
T1 sequence: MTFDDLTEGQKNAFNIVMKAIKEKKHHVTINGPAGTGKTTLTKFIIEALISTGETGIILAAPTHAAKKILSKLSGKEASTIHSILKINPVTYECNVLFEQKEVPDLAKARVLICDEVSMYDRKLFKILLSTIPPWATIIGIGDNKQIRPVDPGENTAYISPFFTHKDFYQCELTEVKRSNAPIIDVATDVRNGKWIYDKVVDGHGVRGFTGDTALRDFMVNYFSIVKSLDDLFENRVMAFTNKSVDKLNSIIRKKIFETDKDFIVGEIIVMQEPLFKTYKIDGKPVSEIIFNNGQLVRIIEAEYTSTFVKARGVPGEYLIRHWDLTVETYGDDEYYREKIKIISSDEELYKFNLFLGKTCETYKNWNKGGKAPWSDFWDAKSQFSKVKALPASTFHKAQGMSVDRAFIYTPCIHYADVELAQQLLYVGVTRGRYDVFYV
The data set is described as follows: EMSA; native TBE PAGE; 50 mM HEPES, 100 mM KOAc pH 8, 1 mM EDTA, 100 uM TMAD; 2:1 and 1:1 complexes, single enzyme after KCl/ATP and SPRI. The following applies: tags: closed with TMAD; Y-adapter, partly double-stranded. The procedure:
T4 Dda—E94C/C109A/C136A/A360C (3 μM, SEQ ID NO: 24 with mutations E94C/C109A/C136A/A360C) and DNA Y-adapter (500 nM, SEQ ID NO: 26 was hybridised to DNA strand X=30 iSpC3 spacers attached at the 3′ end to the 5′ end SEQ ID NO: 27 which is attached at the 3′ end to 4 iSp18 spacers which are attached at the opposite end to the 5′ end of SEQ ID NO: 28) were mixed in buffer (50 mM HEPES, 100 mM KOAc (pH 8) and EDTA (1 mM) and TMAD (100 μM) were added and incubated for 60 minutes at room temperature. The mixture was then diluted 1:1 in KCl/ATP solution (500 mM KCl, 1 mM ATP final) and incubated at ambient temperature for 25 mins, this mixture was known as sample 3.
The resultant enzyme bound to DNA was then analysed using a TBE PAGE gel as described previously in Example 1 except the gel was run for 45 mins.

Data set [2] deals with T1, T4 Dda-E94C/C109A/C136A/A360C helicase. The data set is described as follows: EMSA; native TBE PAGE, band C. The following applies: tags: closed with TMAD; Y-adapter, partly double-stranded. Here is the method:
Each sample run on the gel was 400 nM (5 μL). Lane 1 corresponded to a 100 bp ladder (the number of base pairs that the bands correspond to is shown along the side of the gel). Lane 2 corresponded to helicase leader complex shown in FIG. 12A, without the helicase bound. Lane 3 corresponded to the helicase leader complex shown in FIG. 12A with the helicase bound. Lane 4 corresponded to the polymerase strand complex shown in FIG. 12B without the polymerase bound. Lane 5 corresponded to the polymerase strand complex shown in FIG. 12B with the polymerase bound. Band A corresponded to SEQ ID NO: 43. Band B corresponded to DNA strand X=30 iSpC3 spacers attached at the 3′ end to the 5′ end SEQ ID NO: 27 which is attached at the 3′ end to 4 iSp18 spacers which are attached at the opposite end to the 5′ end of SEQ ID NO: 28. Band C corresponded to the helicase (T4 Dda—E94C/C109A/C136A/A360C) bound to DNA strand X. Band D corresponded to the polymerase strand complex without the enzyme bound (SEQ ID NO: 44 which was attached at its 3′ end to four iSpC3 spacers which were attached at the opposite end to the 5′ end of SEQ ID NO: 45). Band E corresponded to Phi29-A411C/Q560C bound to the polymerase strand complex.
The helicase-leader complex (diagram shown in FIG. 12 section A) was prepared as described in Example 2, except SEQ ID NO: 26 is replaced with SEQ ID NO: 43.

B1: DNA Y-adapter (Example 2) (mixed)
DNA 1: TTTTTTTTTTTTGGTTGTTTCTGTTGGTGCTGATATTGCGGCGTCTGCTTGGGTGTTTAACCT
DNA 2: GGTTAAACACCCAAGCAGACGCCGCAATATCAGCACCAACAGAAACAACCTTTGAGGCGAGCGGTCAA
modifications: 30 iSpC3 at 5' end of SEQ 27; 4 iSp18 between SEQ 27 and SEQ 28; 5' phosphate on SEQ 26
B1: the binding result in data set [1] was “binds”.

B2: helicase-leader Y-adapter (Example 7) (mixed)
DNA 1: B1 DNA 1
DNA 2: GCAATATCAGCACCAACAGAAACAACCTTTGAGGCGAGCGGTCAA
modifications: 30 iSpC3 at 5' end of SEQ 27; 4 iSp18 between SEQ 27 and SEQ 28
For the molecule B2, the binding result in data set [2] is reported as “binds”.

The record behind these values is US20170107569, “METHOD FOR ATTACHING ONE OR MORE POLYNUCLEOTIDE BINDING PROTEINS TO A TARGET POLYNUCLEOTIDE” (Oxford Nanopore Technologies Ltd., published 2017).
